Source: the nanobody polyreactivity screen of Harvey et al. (2022)

Assay: yeast display, Sf9 membrane polyspecificity reagent, FACS + sequencing; frameworks hold sequencing errors
Procedure, shortened: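 Polyreactivity labels are assigned by the sorting gate from which each nanobody was recovered. The gates were low and high (top ~1%), set on anti-HA fluorescence for expression and streptavidin fluorescence for reagent binding. Before sorting, galactose-induced (36–48 hours) yeast display cells were stained for 1 hour at 4 °C with 10% biotinylated, detergent-solubilized Sf9 membrane reagent.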

Row | Sequence | polyreactivity (PSR sort gate)
1 | QVQLVESGGGLVQAGGSRRLSCAASGFTFSSYAMGWYRQAPGKERELVASISWRGGITYYADSVKGRFTISRDNAKNTVYLQMNSLKPEDTAVYYCAAVAFFRPKFYYWGQGTQVTVSS | high polyreactivity
2 | QVQLVESGGGLVQAGGSLRLSCAASGITFYWYAMGWYRQAPGKERELVARISSTGGSTYYADSVKGRFTISRDNAKNTVYLQLNSLKPEDTAVYYCNAVGRLYLYGSWGQGTQVTLSS | high polyreactivity
3 | QVQLVESGRGLVQAGGSLRISCAASGRIFKNYAMGWYRQAPGKERELVADITWSDSDTSYADSVKGRFTITRDNAKNTVYLQMNCLKPEDTAVYYCAAETFDYADYIANGSAEYDYWGQGSQVTVSS | high polyreactivity
4 | QVQLVESGGGLVQAGGSLRLSCAASGSISNVYDMGWYRQAPGKERELVATISRTGDSTYYADSVKGRFTISRDNAKNTVYLQMNSLKPEDTAVYYCAARFYWWGLGDDYWGQGTQVTVSS | high polyreactivity
5 | QVQLVESGGGLVQAGGSLRLSCAASGRNFYLYGMGWYRQAPGKERELVAAIDWSDGSTYYADSVKGRFTISRDNAKNTVYLQMNSLKPEDTAVYYCAADGWAAWLYDYWGQGTQVTVSS | low polyreactivity
6 | QVHLVESGGGLVQAGGSLRLSCAASGSIFNVNAMGWYRQAPGKERELVAAISSGGDTYYADSVKGRFTISRDNAKNTVYLQMNCLKPEDTAVYYCAKQSYTLYTLLYDYWGQGTQVTVSS | low polyreactivity
7 | QVQLVESGGGLVQAGGSLRLSSAATGRTFASYAMGWYRPAPGKERELVAVITRGVRTYYADSVKGRFTISRDNAKNTVYLEMNSLKPEDTAVYYCAKERYNANYDTSLYDYWGQGTQVTVSS | low polyreactivity
8 | QVQLVESGGGLVQAGGSLRLSCAASGRIFPTYAMGWYRQAPGKERELVASITSGVDTYYADSVKGRFTISRDNAKNTVYLQMNSLKPEDTAVYYCAARFFVWWKYDYWGQGTQVTVSS | low polyreactivity
9 | QVQLVESGGGLVQAGGSLRLSCAASGFNFRYYAMGWYRQAPGKERELVAAISASSGRTYYADSVKGRFTISRDNAKNTVYLQMNSLKPEDTAVYYCAAEYIRNGDYGLDYWGQGTQVTVSS | high polyreactivity
10 | QVQLVESGGGFVQAGGSLRLSCAASGSIFDYYTMGWYRQAPGKERELVATIRSGDSTNYADSVKGRFTISRDNAKNTVYLPMNSLKPEDPAVYYCAADYGYQDDYWGQGTQVTVSS | low polyreactivity
11 | QVQLVESGGGLVQAGGSLRLSCADSGSIFAYAMGCSRQAPRKESELVAGISSSGGRTYYADSVKGRFSISRDNAKNTVYLQMNSLKPEDTAVYYCAAKRWGLYKGYYWGQGTQVTVSS | high polyreactivity
12 | QVQLVESGGGLVQAGGSHRLSCAASGSIFTRNVMGWYRQAPGKERELVAAITSAGSTYYADSVKGRFTISRDNAKNNVYLQMTSLNPEDTAVYNCDAKVYYPYLFTSYDYWGQGTQVTVSS | high polyreactivity
13 | QVQLVESGGGLVQAGGSLRLSCAASGRIFTTYAMGWYRQAPGKEMELVAAIDYSDGSTYYADSVKGRFTISRDNAKNTVYLQMNSLNPEDTAVYYCAADGTYVWGSEEGNYWGQGTQVTVSS | low polyreactivity
14 | QVQLVESGVGLVQAGGSLRLSCAASGSIFRYYAMGWYRQAPGKEREFVADITWSGTSTYYADSVKGRFTISRDNAKNTVYFQMNSLKPEDTAVFYCNKYRSYWSGPSYWREYDYWGQGTQVTVSS | high polyreactivity
15 | QVQLVESGGGLVQAGGSLRLSCAASGRTFPYYTMGWYRQAPGKERELVAAITSGGSTYYADSVKGRFTISRDNAKNTVYLQMNSLKPEDTAVYYCNKDAYYWGQGTQVTVSS | low polyreactivity
16 | QVQLVESGGGLVHAGGRLRLSCAASGRTFGFYTMGWYRQPPGKERELVAGISRGGSTTYADSVKGRFTISRDNAKNTVYLQMNSLKPEDTAVYYCNADRSHYWLPYGVRFDYWGQGSQVTVSS | low polyreactivity
17 | QVQLHESAGGLEQAGGCLSCTASGTIFGQGDMCWYLQAPGKEPELVGTINDGASTYYADSVKGRFTISRDKAKNTVYLQKNSLKPADTAVYYCSVFTDITTYFGYWGQGTQVTVSS | low polyreactivity
18 | QVQLVESGGGLVQAGGSLRLSCAASGRTFTIYAMGWYRQAPGKERDLVAAITRSGGGTYYADSVKGRFTISRDNAKNTVYLQMNRLKPEDTAVYYCARDKHWFYGVIGPEDYWGQGTQVTVSS | low polyreactivity
19 | QVQLQGSGGGLAQAGDSLRLSSEASGTIFSEYNNGLVSPGAGQRTRTCCRYWCWGNTYYPDSAKGRFTTSLDNAKNTVYLQKNSLKPEDTEVYYCAFNRPYPSRHIYRGQGTQVTVSS | high polyreactivity
20 | QVQLVESGGGLVQAGGSLRLSCAASGRTFGSYAMGWYRQAPGKERELVAAISKGGGSTYYADSVKGRFTISRDNAKNTVYLQMNSLKPEDTAVYYCAKRRFEYYYYWGQGTQVTVSS | high polyreactivity
21 | QVQLVESGGGLVQAGGSLRLSCAASGRIFRYYTRGWYRQAPGKERELVAAISSSGGRTYYADSVKGRFTISRDYANNTVYLQMNSLKPEDTAVYYCNTDGPTWYPTYDYWGQGTQVTVSS | high polyreactivity

Row | Sequence | polyreactivity (PSR sort gate)
22 | QVQLVESGGGLVQAGGSLRLSCAASGSIFRYYAMGAYRQAPGKARELVAAISIRGGRTYYADSVKGRFTISRDNAKNTVYLQMNSLKPEDTAVYYCATAFGFTAKYYYWGQGTQVTVSS | high polyreactivity
23 | QVQLVESGGGLVQAGGSLRLSCAASGLTLGDNAMGWSRQAPGNERELVASITNGGSTNYADSVKGRFTISRDNAKNTVYLQMNSLNPEDTAVYYCAVEWTWRSTAYSGGAFDYWGQGTQVTVSS | low polyreactivity
24 | QVQLVESGGGLVQAGGSLRLSCAASGRIFKVYAMGWSRQAPGKERELVAAITSGGSTNYADSVKGRFTISRDNAKTTVYLQMNSRKPEDTAVYYCAVVSGRWSAVQYDYWGQGTQVTVSS | high polyreactivity
25 | QVQLVESGGGLVQAGGSLRLICAASGITFYYYAMGWYRQAPGKERELVAAITFTGGSTYYADSVKGRFTISRDNAKNTVYLQMNSLKPEDTAVYYCNRLGPLGDQQQYDYWGQGTQVTVSS | low polyreactivity
26 | QVQLVESGGGLVQAGGSLRLSCAASGRILYGYVMGWYRQAPGKERELVAAISWSGARTYYADSVKGRFTISRDNAKNTVYLQMNSLKPEDTAVYYCAARVPSWKYDYWGQGTQVTVSS | high polyreactivity
27 | QVQLVESGGGLVQAGGSLRLSCAASGSTFYAYAMGWYRQAPGKERELVAAIDSGGSTYYADSVKGRFPISRDNAKNTVYFQMNSLNPEDTAVYYCAVRHRYTRAYWGRDYWGQGTQVTVSS | low polyreactivity
28 | QVQLVESGGGLVQAGGSLRLSCAASGYIFVSNAMGWNRQEPGKERELVAPISGSGGSTYYADSVKGRFTISRDIAKNTVYLQMNSLKPEDTAVYSCAADYATVTWRGIAYDYWGQGTQVTVSS | low polyreactivity
29 | QVQLVESGGGLVQAGGSLRLSCAASGIIFVPNAMGWSRHPPGKERELVAAITGRGVSTYYADSVKGRFTISRDTAKKTVYLQMNSLKPEDTAVYYCAATLFSYSGGTHDYWGQGTQVTVSS | high polyreactivity
30 | QVQLVESGGGLVQAGGSLRLSCAASGNTFAHYVMGWYRQAPGKERELVASITSGGSTNYADSVKGRFTISRDNAKNTVYLQMNSLKPEDTAVYYCAVSLSYWYEAFTTRIDYYYWGQGTQVTVSS | high polyreactivity
31 | QVQLVESGGGLVQAGGSLRLSCAASGRTFSVYAKGWYRQAPGKERELVAGITSGGSTNYADSVKGRFTISRDNAKNTVYLQMNSLKPEDTAVYYCAAENVYAGFGFVSIGDYWGHGTQVTVSS | low polyreactivity
32 | QVQLVESGGGLVQAGGSLRLSSAASGITYYGYAMGWYRQAPGKERELVAAISKSGGSTHYADSVKGRFTISRDNAINTVYLQMYRLKPEDTAVYYCAAAYWTRLRRMDYWGQGTQVTVSS | low polyreactivity
33 | QVQLVESGGGLVQAGGSLRLSCAASGSIFFYNAMGWYRQAPGKERELVAAITTRGGSTYYADSVKGRFTISRDNAKNTVYLQMNSLKPEATAVYYCARSSRGKLVYWGQGTQVTVSS | low polyreactivity
34 | QVQLVESVGGLVQAGGSLRISCAASGRITQIYAMGWSRQAPRKEWELVARITSTDSTYYADSVKGRFTISRDNAKKTVYLKMNSLTPEDTAVYYCAASWWSPYDYWGQGTQVTVSS | low polyreactivity
35 | QVQLVESGGGLVQAGGSLRLSCAASGRIFGLNAMGWYRQAPGKERELVAAIDQGDGITYYADSVKGRFTISRDNAKNTVYLQMNSLKPEDTAVYYCAAEVSYKEIYQYYWIYPAYNYWGQGTQVTVSS | high polyreactivity
36 | QVQLVESGGGLVQAGGSLRLSCAASGSTFSGYAMGGYRQAPGKERELVAAISSSGGSTSYADSVKGRFTISRDNAKNTVYLQMNSLKPEDTAVYYCAARAKGYAHIRAYDYWGQGTQVTVSS | low polyreactivity
37 | QVQLVESGGGLVQAGGSLRLSCAASGSTFYANAMGWYRQAPGKERELVAAISYSGGGTNYADSVKGRFTISRDNAKNTVYLQMISLKPEDTAVYYCAKRRDYDRYRYKKTSSVRGDYWGQGTQVTVSS | low polyreactivity
38 | QVQLVESGGGLVQAGGSLRLICAASGSTFGFYGMGWYRQAPGKERELVASIDSRGDSTYADSVKGRFTISRDNAKKTVYVQMNSLKPEDTAVYYCAAESWYTWFDSWGQGTQVTVSS | low polyreactivity
39 | QVQLVESGGGLVQAGGSLRLSCAASGSIFVTYAMGWYRQAPGKERELVAAITGRDGITYADSVKGRFTISCDNAKNTVYVQMNSLKPEDTAVYYCAAVSHGVYYQYRRRYYSWGQGTQVTVSS | high polyreactivity
40 | QVQLVESRGGLVQAGGSLRLSCAASGITSPYAMGWYRQAPGKERELVAAISWSGSSTYYADSVKGRFTISRDNAKNTVYLQMNSLKPQDTAVYYCNTVGTRQPMDYWGQGTQVTVSS | high polyreactivity
41 | QVQLVESGGGLVQAGGSLRLSCAASGRIFGRNAMGWSRQAPGKERELVASITSGGSTNYADSVKGRFTISRYNAKNTVYLQMNSLKPEDTAVYYCNARWTGSYTSTGFRRRFDYWGQGTQVTVSS | high polyreactivity
